According to patent US20220242974A1 (QURE BIOTECHNOLOGY SHANGHAI, published 2022):
Each block holds one binder with its values, some of them ahead of it.

Molecular target: PD-L1-his fusion protein (Homo sapiens (Human), UniProt Q9NZQ7 19-238)
Assay: ELISA, PD-L1-his coated, culture supernatant of the clone

Sequence of PD-L1-his fusion protein (Q9NZQ7 other isoform, or with tags, fused parts or gaps limits assumed): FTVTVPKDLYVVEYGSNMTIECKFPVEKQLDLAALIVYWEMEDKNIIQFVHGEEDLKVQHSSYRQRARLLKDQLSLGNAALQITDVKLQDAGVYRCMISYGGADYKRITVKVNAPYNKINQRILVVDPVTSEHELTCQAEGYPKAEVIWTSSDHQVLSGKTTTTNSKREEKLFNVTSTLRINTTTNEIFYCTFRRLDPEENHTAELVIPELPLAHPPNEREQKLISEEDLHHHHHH

binding result: binds
B1: QP1127 nanobody (VHH)
VHH: QVQLVESGGGSVQSGGSLTLSCAISGYAYATYSMAWFRQAHGKEREGVAAINSDGHTTYVDSVKGRFTISRDNTNKNSYTLTLTMNNLNPEDTAMYYCAATSQLGFWAQKLWEAIRDGTWSPSTTDFGFWGRGTQVTVSS
notes: as m59

binding result: binds
B2: QP1128 nanobody (VHH)
VHH: QVQLVESGGGSVQSGGSLRLSCAASGYTASAYYMAWFRQNSRKQREGVAAINRDGDTKYADSVKGRFTISRDDAKNTLYLQMNSLKPEDTAVYYCAASDWSRLYKIYWLDDNYYVRWGQGTQVTVSS
notes: as m59

binding result: binds
B3: QP1125 nanobody (VHH)
VHH: QVQLVESGGGLVQPGGSLRLSCTAPGFTDKTCAMAWYRQVAGIEREWVSSISTLGTTNYASSVKGRFTISKDNAKDTVYLQMNNLKPEDTAMYVCKTFSCRNRGGSYLPDTWGQGTQVTVSS
notes: as m59
